PMC3656102

Tests used:
[1] = target: Bunyamwera virus Gn–Gc glycoprotein heterodimer (protomer of the membrane-bound glycoprotein spike) (Bunyamwera virus); experiment: cryo-EM structure; electron cryo-tomography and sub-tomogram averaging of about 2,000 spikes on purified BUNV virions vitrified at pH 7.4; 3.0 nm resolution; three-fold symmetry seen without imposing it; validated by single particle averaging of spike side views
[2] = target: Bunyamwera virus Gc glycoprotein (Bunyamwera virus) (UniProt P04505); experiment: as above

Work on “Bunyamwera virus Gn–Gc glycoprotein heterodimer (protomer of the membrane-bound glycoprotein spike) (complex)” yielded a stoichiometry N [1] of 3.

For “Bunyamwera virus Gc glycoprotein (from UniProt P04505 478-1433) (natural protein)”, the stoichiometry N [2] was 3.
